# Where no end group is shown, it is not given here.
# Biological target: Rh-(Crk-II)-Fl (mouse, UniProt Q64010 2-304, N-alpha-tetramethylrhodamine (Rh) on the N-terminal KRG peptide); Dapa(Fl) = diaminopropionic acid-fluorescein in the C-terminal peptide; K-epsilon-(Biotin) and C-terminal amide (present in the …)
# Assay: cell-based or functional assay
# Sequence of Rh-(Crk-II)-Fl (Q64010 other isoform, or with tags, fused parts or gaps limits assumed): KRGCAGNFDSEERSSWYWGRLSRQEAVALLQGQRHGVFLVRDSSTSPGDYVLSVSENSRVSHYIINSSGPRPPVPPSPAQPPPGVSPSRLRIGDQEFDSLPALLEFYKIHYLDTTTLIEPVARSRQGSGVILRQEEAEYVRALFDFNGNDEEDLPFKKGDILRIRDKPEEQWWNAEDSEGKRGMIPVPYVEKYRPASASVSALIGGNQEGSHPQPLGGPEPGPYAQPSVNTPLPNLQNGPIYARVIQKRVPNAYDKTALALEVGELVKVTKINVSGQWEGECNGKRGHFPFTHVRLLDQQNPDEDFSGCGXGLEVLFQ
binder,measurement,value
"PPPALPPKRRR-NH2 [PPPALPPKRRR-NH2, high affinity ligand for the N-SH3 domain of Crk]","reduction in the change in FRET after 60 minutes reaction with full length c-Abl, relative to the positive control",50%

# From US20060040319A1 (published 2006)
